Assay results as given in publication PMC10688287, “RNA binding protein AUF1/HNRNPD regulates nuclear export, stability and translation of SNCA transcripts” (Open Biology, 2023).

Target: T1, CNOT1 (UniProt A5YKK6 1-2376)
T1 construct: CNOT1, scaffold subunit of the CCR4-NOT deadenylase complex; Endogenous human CNOT1 of the SK-N-SH cells is precipitated by the anti-CNOT1 antibody as well; source: SK-N-SH, transfected (CNOT1 plasmid), in lysate
Test: co-IP; anti-CNOT1 antibody or control IgG, protein A/G magnetic beads; lysates of SK-N-SH cells 48 h after co-transfection with CNOT1 and either empty or AUF1-expressing plasmid; PLB lysis buffer (10 mM HEPES pH 7.0, 100 mM KCl, 5 mM MgCl2, 0.5% NP-40); washes in NT2 buffer with 250 mM NaCl; Western blot
Settings: partners not purified

T1 sequence (A5YKK6 whole entry): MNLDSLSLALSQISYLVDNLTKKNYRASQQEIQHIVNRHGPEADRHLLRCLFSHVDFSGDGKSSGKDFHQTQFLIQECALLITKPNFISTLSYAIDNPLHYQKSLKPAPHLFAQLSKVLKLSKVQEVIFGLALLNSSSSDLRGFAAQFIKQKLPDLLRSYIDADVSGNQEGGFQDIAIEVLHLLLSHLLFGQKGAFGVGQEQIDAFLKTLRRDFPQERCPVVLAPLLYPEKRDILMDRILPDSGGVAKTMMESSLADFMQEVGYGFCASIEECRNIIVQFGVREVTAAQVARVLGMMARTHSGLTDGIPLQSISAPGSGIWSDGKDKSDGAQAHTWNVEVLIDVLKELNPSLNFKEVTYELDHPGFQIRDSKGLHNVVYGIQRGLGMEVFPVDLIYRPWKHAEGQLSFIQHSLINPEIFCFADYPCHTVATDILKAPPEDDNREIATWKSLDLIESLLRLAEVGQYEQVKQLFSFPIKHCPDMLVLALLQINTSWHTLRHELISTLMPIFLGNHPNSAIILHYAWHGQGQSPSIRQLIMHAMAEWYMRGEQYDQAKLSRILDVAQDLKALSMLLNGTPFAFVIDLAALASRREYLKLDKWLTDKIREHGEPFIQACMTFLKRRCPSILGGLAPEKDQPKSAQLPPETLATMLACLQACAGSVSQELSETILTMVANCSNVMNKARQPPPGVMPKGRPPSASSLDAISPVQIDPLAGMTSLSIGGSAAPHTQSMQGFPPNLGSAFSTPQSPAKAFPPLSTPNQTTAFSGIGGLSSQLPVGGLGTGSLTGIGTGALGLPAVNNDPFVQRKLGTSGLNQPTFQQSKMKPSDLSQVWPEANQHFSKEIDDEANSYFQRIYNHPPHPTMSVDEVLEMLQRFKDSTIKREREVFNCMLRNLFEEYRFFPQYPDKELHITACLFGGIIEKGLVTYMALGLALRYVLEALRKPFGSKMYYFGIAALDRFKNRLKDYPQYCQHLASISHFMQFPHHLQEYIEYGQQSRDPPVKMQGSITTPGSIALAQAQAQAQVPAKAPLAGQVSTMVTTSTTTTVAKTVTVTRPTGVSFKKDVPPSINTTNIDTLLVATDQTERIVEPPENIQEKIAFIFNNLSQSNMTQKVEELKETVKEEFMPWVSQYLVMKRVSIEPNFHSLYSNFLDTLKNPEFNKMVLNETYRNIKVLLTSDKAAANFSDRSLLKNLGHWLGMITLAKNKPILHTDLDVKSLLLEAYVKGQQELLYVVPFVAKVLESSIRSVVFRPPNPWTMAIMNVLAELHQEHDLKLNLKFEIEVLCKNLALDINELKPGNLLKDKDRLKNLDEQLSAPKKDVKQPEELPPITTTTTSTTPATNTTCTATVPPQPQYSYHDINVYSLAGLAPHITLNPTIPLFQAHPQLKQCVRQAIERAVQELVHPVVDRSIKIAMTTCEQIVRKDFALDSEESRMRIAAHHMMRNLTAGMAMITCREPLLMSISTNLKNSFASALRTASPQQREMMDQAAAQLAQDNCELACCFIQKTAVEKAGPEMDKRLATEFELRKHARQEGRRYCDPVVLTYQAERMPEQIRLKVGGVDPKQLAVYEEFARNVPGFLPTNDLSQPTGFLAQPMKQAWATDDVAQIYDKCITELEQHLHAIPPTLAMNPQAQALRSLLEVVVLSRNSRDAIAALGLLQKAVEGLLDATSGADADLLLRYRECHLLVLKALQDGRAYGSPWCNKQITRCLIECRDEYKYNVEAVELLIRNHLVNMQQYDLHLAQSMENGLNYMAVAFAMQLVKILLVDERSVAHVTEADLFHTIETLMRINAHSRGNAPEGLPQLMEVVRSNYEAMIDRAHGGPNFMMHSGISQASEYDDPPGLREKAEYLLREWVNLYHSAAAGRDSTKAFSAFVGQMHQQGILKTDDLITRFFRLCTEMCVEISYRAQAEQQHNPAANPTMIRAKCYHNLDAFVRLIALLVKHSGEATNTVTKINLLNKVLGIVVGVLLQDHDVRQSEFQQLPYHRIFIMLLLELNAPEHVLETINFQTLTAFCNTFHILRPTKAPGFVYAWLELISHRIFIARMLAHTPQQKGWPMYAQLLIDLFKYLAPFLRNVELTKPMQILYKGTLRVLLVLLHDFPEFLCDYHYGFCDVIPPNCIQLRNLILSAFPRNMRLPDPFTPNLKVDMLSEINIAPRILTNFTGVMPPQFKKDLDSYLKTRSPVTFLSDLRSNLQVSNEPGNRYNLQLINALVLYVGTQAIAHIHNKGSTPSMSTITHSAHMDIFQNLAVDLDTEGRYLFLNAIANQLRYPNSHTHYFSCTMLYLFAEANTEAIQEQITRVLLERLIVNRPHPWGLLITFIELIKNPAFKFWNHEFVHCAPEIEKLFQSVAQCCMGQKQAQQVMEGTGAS

fold enrichment in the CNOT1 immunoprecipitate: 1.6 fold
B1: AUF1 (heterogeneous nuclear ribonucleoprotein D, HNRNPD), 42 kDa protein (natural protein, human, UniProt Q14103-2 1-336, looked up)
chain: MSEEQFGGDGAAAAATAAVGGSAGEQEGAMVAATQGAAAAAGSGAGTGGGTASGGTEGGSAESEGAKIDASKNEEDEGKMFIGGLSWDTTKKDLKDYFSKFGEVVDCTLKLDPITGRSRGFGFVLFKESESVDKVMDQKEHKLNGKVIDPKRAKAMKTKEPVKKIFVGGLSPDTPEEKIREYFGGFGEVESIELPMDNKTNKRRGFCFITFKEEEPVKKIMEKKYHNVGLSKCEIKVAMSKEQYQQQQQWGSRGGFAGRARGRGGGPSQNWNQGYSNYWNQGYGNYGYNSQGYGGYGGYDYTGYNNYYGYGDYSNQQSGYGKVSRRGGHQNSYKPY
notes: human AUF1/HNRNPD CDS encoding the 42 kDa protein (p42 isoform), amplified from SK-N-SH cDNA and cloned between KpnI and NotI of pENTR-GD; The co-IP was done in cells transfected with empty or AUF1-expressing plasmid; the anti-AUF1 blot also detects the endogenous AUF1 isoforms (p37, p40, p42, p45) of SK-N-SH cells; also called p42; source: SK-N-SH, transfected (AUF1-expressing plasmid), in lysate
